Experiment [1] has as its target anti-V region antibodies to CC49 in the serum of patient one. Description: SPR competition for patient one serum anti-V region Abs.
For experiment [2], the target named is tumor-associated glycoprotein-72 on the cell surface of Jurkat cells. Description: flow cytometry, 0.5 ug Ab on Jurkat cells expressing TAG-72.
The target in experiment [3] is anti-V region antibodies to CC49 in the serum of patient one. The experiment is described as follows: SPR competition, soluble competitor Ab against immobilized HuCC49 for patient one serum anti-V region Abs.
Experiment [4] addresses bovine submaxillary mucin (TAG-72 positive) (bovine). Description: competition RIA against 125I-mCC49 on BSM; relative affinity constant, modified Scatchard.
Experiment [5] deals with anti-V region antibodies to CC49 in the serum of patient two. The experiment is described as follows: SPR competition, soluble competitor Ab against immobilized HuCC49 for patient two serum anti-V region Abs.

B1: HuCC49V10 (antibody, V domains shown)
VH: QVQLVQSGAEVVKPGASVKISCKASGYTFTDHAIHWVKQNPGQRLEWIGYFSPGNDDFKYSQKFQGKATLTADTSASTAYVELSSLRSEDTAVYFCTRSLNMAYWGQGTLVTVSS
VL: DIVMSQSPDSLAVSLGERVTLNCKSSQSVLYSSNSKNYLAWYQQKPGQSPKLLIYWASTRESGVPDRFSGSGSGTDFTLTISSVQAEDVAVYYCQQYYSYPLSFGAGTKLELK
By IC50 is commonly meant the concentration at which inhibition is half-maximal. The low end stands for greater potency, the high end for weaker potency. As to B1, in experiment [1], the concentration required for 20% inhibition came to 80 nM and the percent inhibition at 1000 nM is less than 30%. Also, in experiment [2], the % of gated cells was determined as 25.8% and the mean fluorescence intensity turned out to be 62.9. The IC50 in experiment [3] is greater than 1000 nM. The molecule further displayed a Ka in experiment [4] of 5.9e+07 M⁻¹. This molecule had a half-maximal inhibitory concentration (IC50) in experiment [5] of 7.7 nM.

B2: humanized CC49 (CDR-grafted) (antibody, V domains shown)
VH: QVQLVQSGAEVVKPGASVKISCKASGYTFTDHAIHWVKQNPGQRLEWIGYFSPGNDDFKYNERFKGKATLTADTSASTAYVELSSLRSEDTAVYFCTRSLNMAYWGQGTLVTVSS
VL: DIVMSQSPDSLAVSLGERVTLNCKSSQSLLYSGNQKNYLAWYQQKPGQSPKLLIYWASARESGVPDRFSGSGSGTDFTLTISSVQAEDVAVYYCQQYYSYPLTFGAGTKLELK
B2: the concentration required for 20% inhibition in experiment [1] came to 2 nM. The concentration for half-maximal inhibition (IC50) in experiment [3] worked out at 6 nM; in experiment [5] it was 2.2 nM. In experiment [4], this molecule returned a Ka of 1.16e+08 M⁻¹.

The values above are taken from patent US20060171941A1.
